The chains are these.
T1: hCD45 D1 domain displayed on yeast as Aga2 fusion (human)
T1 construct: not shown: Aga2p anchor protein for yeast surface expression
T1 chain: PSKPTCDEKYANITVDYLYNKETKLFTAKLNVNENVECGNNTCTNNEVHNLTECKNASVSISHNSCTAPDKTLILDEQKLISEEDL

T2: hCD45 D3 domain displayed on yeast as Aga2 fusion (human)
T2 construct: not shown: Aga2p anchor protein for yeast surface expression
T2 chain: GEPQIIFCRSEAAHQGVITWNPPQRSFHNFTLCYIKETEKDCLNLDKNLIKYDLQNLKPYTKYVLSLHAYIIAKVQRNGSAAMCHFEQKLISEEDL

T3: hCD45 D4 domain displayed on yeast as Aga2 fusion (human, UniProt P08575 479-571)
T3 construct: not shown: Aga2p anchor protein for yeast surface expression
T3 sequence: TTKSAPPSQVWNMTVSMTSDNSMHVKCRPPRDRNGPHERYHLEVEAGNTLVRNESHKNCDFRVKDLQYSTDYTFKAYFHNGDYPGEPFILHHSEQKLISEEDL

T4: human CD45 D1-D4 (amino acids 194-578) with C-terminal 8xHis tag (human, UniProt P08575 194-578)
T4 construct: Made in house in expi293 cells; SPR analyte; also called D1-D4 region of human CD45RO
T4 sequence: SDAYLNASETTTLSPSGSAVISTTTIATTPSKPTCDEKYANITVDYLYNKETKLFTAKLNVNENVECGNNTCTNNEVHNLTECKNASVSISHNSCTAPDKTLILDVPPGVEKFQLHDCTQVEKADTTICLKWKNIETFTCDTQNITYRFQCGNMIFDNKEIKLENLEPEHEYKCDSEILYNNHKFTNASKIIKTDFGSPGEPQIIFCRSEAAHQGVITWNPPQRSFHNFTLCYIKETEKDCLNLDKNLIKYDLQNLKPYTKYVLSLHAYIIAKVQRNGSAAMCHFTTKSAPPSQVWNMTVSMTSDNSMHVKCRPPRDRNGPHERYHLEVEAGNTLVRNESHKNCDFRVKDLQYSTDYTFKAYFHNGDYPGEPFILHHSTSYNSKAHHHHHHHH

B1: 1G1 VHH, His-tagged (VHH)
VHH: QVQLQASGGGLVQAGGSLRLSCAASGRTVSSDAMGWFRQAPGKEREFVAAINWNGASTYYGDSAQGRFTISRDNAKNTVYLQMNSLKSEDTAVYYCAASDWVVGGISLMNGAEYKYWGQGTLVTVSS
notes: Clonotype 7; not shown: His tag
B2: 1A10 VHH, His-tagged (VHH)
VHH: QVQLQAFGGGLVQAGGSLGLSCSASGTIFNLDYMGWYRQALGKQRELVATITSDGRTNYADSVKGRFTIFRDGAKNAILMQMNSLKPEDTAVYYCKAYLSGRSDYWGQGTQVTVSS
notes: Clonotype 10; not shown: His tag
B3: 1D6 VHH, His-tagged (VHH)
VHH: QVQLQESGGGSVQAGGSLGLFCSASGTIFNIDVMGWYRQAPGKQRELVATITSDGRTNYADSVKGRFTISRDGAKNAVHVQMNSLKPEDTAVYYCKAYLSGRSDYWGQGTQVTVSS
notes: as for B2
B4: 2D6 VHH, His-tagged (VHH)
VHH: QVQLQESGGGLVQAGASLRLSCAASGRTFSSFMGWFRQAPGKERKFVATINWNGGATGYADSVKGRFTISRDNAKNTLYLQMNSLKPEDTAVYYCAAARTGSAYYTSSDAGEYNYWGQGTQVTVSS
notes: Clonotype 6; not shown: His tag
B5: 4B2 anti-CD45 antibody, recombinant mouse IgG2a (antibody, from another filing, V domains shown)
VH: GVQLQESGAELARPGASVKMSCKASGYTFTSYTMQWVKQRPGQGLEWIGYINPSSGYIKYNQKFKDKVTLTADKSSTTAYMQLSRLTSEDSAVYYCARRGSYFFDFWGQGTSVTVSS
VL: DIVITQDELSNPVTSGESVSISCRSSKSLLYKDGKTYLNWFLQRPGQSPQLLIYLMSTRASGVSDRFSGSGSGTDFTLEISRVKAEDVGVYYCQQLVEYPFTFGGGTKLEVK
B6: gap8.3 anti-CD45 antibody, recombinant mouse IgG2a (antibody, from another filing, V domains shown)
VH: EVQLQQSGPELVKTGASVKISCKASGYSFTGYFIHWVKQSHGKSLEWIGYISCYNGATSYNQKFKGKATFTVDTSSSTAYMQFNSVTSEDSAVYYCVRNYYGNLDAMDYWGQGTSVTVSS
VL: DIVMTQSHKFMSTSVGDRVSITCKASQDVSTAVAWYQQKPGQSPKILIYSASYRYTGVPDRFTGSGSGTDFTFTISSVQAEDLAVYYCQQHYSTPRTFGGGTKLEIK
B7: 4B2 scFv linked to a human IgG1 Fc domain (scFv, from another filing, V domains shown)
VH: B5 VH
VL: B5 VL
B8: gap8.3 scFv linked to a human IgG1 Fc domain (scFv, from another filing, V domains shown)
VH: B6 VH
VL: B6 VL
B9: 2C5 VHH monomeric Fc fusion (Fc fusion)
VHH: QVQLQEFGGGLVQAGASLRLSCAASGGTFSYFMGWFRQAPGKEREFVATINRNGGATGYADSVKGRFTISRDNAKNTLYLQMDSVTPEDTAVYYCAAARESSVYYTSTDPAEYGYWGQGTQVTVSS
notes: Clonotype 6; Construct used for SPR; not shown: monomeric Fc tag
B10: 2G4 VHH monomeric Fc fusion (Fc fusion)
VHH: QVQLQEFGGGLVQAGGSLRLSCAASGSISRINAMGWYRQAPGKQRELVAVITSGGSTHYADSVKGRFTISRDNAKNTLYLQMNSLKPEDTAVYYCNGRRKTTGWGSLREWEGSRDPDEYNYWGQGTLVTVSS
notes: Clonotype 2; Construct used for SPR; not shown: monomeric Fc tag
B11: 1G1 VHH monomeric Fc fusion (Fc fusion)
VHH: B1 VHH
notes: Clonotype 7; Construct used for SPR; not shown: monomeric Fc tag
B12: 2F8 VHH monomeric Fc fusion (Fc fusion)
VHH: QVQLQQFGGGLVQAGGSLRLSCAASGRTFSGYAMGWFRQAPGKEREFVAAINWSGGSTYYADSVKGRYTISRDNAKNTGYLQMNSLKSEDTAVYYCAASDWVVGGISLMNGAEYKYWGQGTLVTVSS
notes: as for B11
B13: 1E4 VHH monomeric Fc fusion (Fc fusion)
VHH: QVQLQESGGGLVQPGGSLRLSCAASGGTFSDYGMGWFRQAPGKEREFVSSISWSGNSVYYAGAVRGRFTISRDNAKNTVYLQMNSLQPEDTAVYYCAASSTWNNNDPTEYEYWGQGTLVTVSS
notes: Clonotype 3; Construct used for SPR; not shown: monomeric Fc tag
B14: 1A10 VHH monomeric Fc fusion (Fc fusion)
VHH: B2 VHH
notes: Clonotype 10; Construct used for SPR; not shown: monomeric Fc tag
B15: 1D6 VHH monomeric Fc fusion (Fc fusion)
VHH: B3 VHH
notes: as for B14
B16: 2H7 VHH monomeric Fc fusion (Fc fusion)
VHH: QVQLQESGGGLVQAGGSLRLSCAASGRTFSTHAMGWFRQAPGKEREFVAAIAWSGGSTYYADSVKGRFTISRDISKNTIYLQMNSLKPEDTALYYCAATNGGAWHYHERYFGSWGQGTLVTVSS
notes: Clonotype 8; Construct used for SPR; not shown: monomeric Fc tag

For the first test, the target named is T1, hCD45 D1 domain displayed on yeast as …. In words: epitope mapping (yeast display) and affinity studies; grade in column Notes. The procedure: (§1) CD45 domains described in FIG. 2 were fused to the C-term of Aga2 with an N-term FLAG and C-term c-Myc tag. Yeast constructs were expressed on the surface of yeast (S. cervisiae ATCC strain YVH10). Yeast were grown overnight at 30C in synthetic selective media SD-SCAA, then induced again overnight at 20° C. in SG-SCAA. Yeast were incubated with individual a-CD45 antibodies or a-CD45 VHH for 60 minutes on ice, washed, and incubated with anti-mouse/anti-human Fc or anti-VHH Alexa647 secondary antibody as well as an anti-FLAG or anti-c-Myc Alexa488 secondary antibody. Labeled yeast were analyzed by flow cytometry on a Beckman Coulter Cytoflex® and analyzed using the FlowJo® software package.
(§2) The results of the epitope mapping of the VHHs described above conducted in substantial accordance with the teaching of Example 3 and the affinity measurements conducted in substantial accordance with the teaching of Example 4 above are summarized in the following Table 7 and the sequences of the VHHs and corresponding CDRs are provide in Table 4 above: […]
For B1, the binding result is given as “binds”.

The target in the next test is T2, hCD45 D3 domain displayed on yeast as …. The test is described as above. The procedure: as §1, §2
For the molecule B2, the binding result was “binds”.
Still for that read-out and setting: in the case of B3 it was “binds”.

The target in another test is T3, hCD45 D4 domain displayed on yeast as …. The description is as above. The procedure: as §1, §2
B4: the binding result is on record as “binds”.

Another test concerns the target human CD45 D1-D4 (amino acids 194-578) with C-terminal 8xHis tag (human) (UniProt P08575). In words: SPR, Biacore T200, single cycle kinetics; IgG captured on Protein A chip, CD45 D1-D4 as analyte.
One may read the Kd as the constant that tells how readily two partners part at equilibrium. Consider “9.4 anti-CD45 antibody, recombinant mouse IgG2a”, for which the Kd came out at 2.4 nM. In other words, the single-digit nanomolar range.
On the same count and under the same terms, next, B5: 17 nM; B6: 21 nM.

The next test has the same target. In words: SPR, Biacore T200, single cycle kinetics; scFv-Fc captured on Protein A chip, CD45 D1-D4 as analyte. A general note: SPR reads the build-up and loss of mass on a sensor chip optically.
“9.4 scFv linked to a human IgG1 Fc domain” displayed a Kd of 18 nM. This lies in the double-digit nanomolar range.
Same read-out and setting: next, B7: 12 nM; B8: 40 nM.

In the next test the target is T4, human CD45 D1-D4 (amino acids 194-578) …. In words: SPR, Biacore T200, single cycle kinetics; VHH monomeric Fc fusion captured on Protein A chip, CD45 D1-D4 as analyte. The procedure: The yeast display system as described above was employed to domain map the VHH binding sites. For labeling, His-tagged VHH proteins were incubated with the yeast and detected using an anti-VHH antibody. Seven VHH clonotypes bound across all four domains of CD45RO, with clonotypes 3, 4, and 7 targeting the D1 and D2 domains, clonotype 10 binding the D3 domain, clonotypes 2, 6, and 8 interacting with the D4 domain (Table 3).
Affinities were determined using a Biacore T200 instrument by measuring Kon/Koff in single cycle kinetics mode. Hybridoma clones were either reformatted and expressed in the form of the parent IgG (gap8.3, 4B2, 9.4 as murine IgG2A, VHE as human IgG1), and scFvs were expressed as human IgG1 Fc fusions. For the anti-CD45 VHH, proteins were expressed as monomeric Fc fusions. […] Human CD45 D1-D4 was generated in house with a C-terminal 8×His tag (SEQ ID NO: 610) and expressed and purified from expi293 cells by standard Ni- and SEC chromatography methods. Kinetic affinity constants were calculated using the Biacore® T200 software package.
For B9, the affinity, expressed as Kd, was 1.4 nM.
Same read-out and setting: next, B10: 8.3 nM; B11: 28 nM; B12: 69 nM.
Still for that read-out and setting: next, B13: 299 nM.
Turning to B14, the Kd is 32 nM.
The same measure, in the same setting: in the case of B15 it was 522 nM; in that of B16, 0.88 nM.

The values are drawn from US20230357424A1 (published 2023).
